Article PMC5408348, “The biochemical properties of the two Arabidopsis thaliana isochorismate synthases” (Biochemical Journal, 2017)

B1: AtICS2 (His6-AtICS2, ICS2) (Arabidopsis thaliana) (protein)
chain: MNGCEADHKAPLGTVETRTLSTVPSPAAATERLITAVSDLKSQPPPFSSGIVRLQVPIEQKIGAIDWLHAQNEILPRSFFSRRSDSGRPDLLQDFSSDNGSSDHNPVSVAGIGSAVFFRDLDPFSHDDWRSIRRFLSSKSPLIRAYGGLRFDPTGKIAVEWEHFGSFYFTVPQVEFDEFGGSSMLAATVAWDNELSWTLENAIEALQETMLQVSSVIMRLRRESLGVIVVSKNHVPSEGAYYPAVNNALEIIKDKHSPLSKVVLARSSRIITDTDIDPIAWLARLQCEGQDAYQFCLQPPGAPAFIGNTPERLFHRKHLGVCSEALAATRPRGDSKVREMEIERDLLTSPKDDLEFSIVRENIREKLKTICDRVVVKPHKSVRKLARVQHLYSQLAGQLKREDDEFNILTALHPTPAVCGCPVEEARLLIKQIESFDRGMYAGPIGFFGGGESEFSVGIRSALVEKGLGALIYAGTGIVSGSNPSSEWNELELKISQFTKSLEHESALQPIN
notes: transit peptide removed (forward primer encodes MNGCEA start), N-terminal His6 tag from pET-28a TEV, no tag cleavage described; E. coli Rosetta DE3 pLysS; ~60 kDa; monomer
B2: AtICS1 (His6-AtICS1, ICS1) (Arabidopsis thaliana) (protein)
chain: MNGCDGDFKTPLGTVETRTMTAVLSPAAATERLISAVSELKSQPPSFSSGVVRLQVPIDQQIGAIDWLQAQNEIQPRCFFSRRSDVGRPDLLLDLANENGNGNGNGTVSSDRNLVSVAGIGSAVFFRDLDPFSHDDWRSIRRFLSSTSPLIRAYGGMRFDPNGKIAVEWEPFGAFYFSVPQVEFNEFGGSSMLAATIAWDDELSWTLENAIEALQETMLQVSSVVMKLRNRSLGVSVLSKNHVPTKGAYFPAVEKALEMINQKSSPLNKVVLARNSRIITDTDIDPIAWLAQLQREGHDAYQFCLQPPGAPAFIGNTPERLFQRTQLGVCSEALAATRPRAASSARDMEIERDLLTSPKDDLEFSIVRENIREKLNGICDRVVVKPQKTVRKLARVQHLYSQLAGRLTKEDDEYKILAALHPTPAVCGLPAEEARLLIKEIESFDRGMYAGPIGFFGGEESEFAVGIRSALVEKGLGALIYAGTGIVAGSDPSSEWNELDLKISQFTKSIEYEATTSLQAIN
notes: transit peptide removed (forward primer encodes MNGCDG start), N-terminal His6 tag from pET-28a TEV, no tag cleavage described; E. coli Rosetta DE3 pLysS; ~60 kDa; monomer

What was measured:
[1] = substrate: C=C(O[C@@H]1C=C(C(=O)O)C=C[C@H]1O)C(=O)O; experiment: coupled fluorimetric assay with PchB (salicylate formation); format: biochemical, Arabidopsis thaliana; conditions: 100 mM Tris-HCl pH 7.7, 10 mM MgCl2, 30°C, 1 µM His6-PchB, 100 nM enzyme
Text: coupled fluorimetric assay with PchB (salicylate formation) on AtICS2 (His6-AtICS2, ICS2)

[2] = substrate: C=C(O[C@@H]1C=C(C(=O)O)C=C[C@H]1O)C(=O)O; experiment: as above; format: biochemical, Arabidopsis thaliana; conditions: 100 mM Tris-HCl pH 7.7, 10 mM MgCl2, 30°C, 1 µM His6-PchB, 100 nM enzyme; remark: listed apart in the source
Text: coupled fluorimetric assay with PchB (salicylate formation) on AtICS1 (His6-AtICS1, ICS1)

Protein | Km [1] [µM] | kcat [1] [s⁻¹] | kcat/Km [1] [M⁻¹ s⁻¹] | Km [2] [µM] | kcat [2] [s⁻¹] | kcat/Km [2] [M⁻¹ s⁻¹]
B1 | 28.8 ± 6.9 | 0.283 ± 0.02 | 9830 ± 1030 | – | – | –
B2 | – | – | – | 34.3 ± 3.7 | 0.635 ± 0.025 | 18500 ± 217
